From paper PMC4299599, “Quantification of cytosolic interactions identifies Ede1 oligomers as key organizers of endocytosis” (Molecular Systems Biology, 2014)

How the values were obtained:
[1] = biological target: T1, Sla2 (S. cerevisiae, UniProt P33338 1-968); assay: fluorescence cross-correlation spectroscopy (FCCS); in the cytoplasm of living yeast cells; first-named protein green (3myeGFP or 1myeGFP; eGFP for Don1), second red (3mCherry); self-interaction in diploid strains with one allele of each colour; apparent or effective KD (Kdeff) from single-cell measurements; only Kdeff values < 1000 nM are shown; values for self-interactions are upper limits; conditions: partners not purified
T1 construct: Sla2, S. cerevisiae; also called Sla2-3myeGFP; Sla2-3mCherry; source: chromosomally tagged at the endogenous locus, in the cytoplasm of living S. cerevisiae cells
T1 sequence (looked up): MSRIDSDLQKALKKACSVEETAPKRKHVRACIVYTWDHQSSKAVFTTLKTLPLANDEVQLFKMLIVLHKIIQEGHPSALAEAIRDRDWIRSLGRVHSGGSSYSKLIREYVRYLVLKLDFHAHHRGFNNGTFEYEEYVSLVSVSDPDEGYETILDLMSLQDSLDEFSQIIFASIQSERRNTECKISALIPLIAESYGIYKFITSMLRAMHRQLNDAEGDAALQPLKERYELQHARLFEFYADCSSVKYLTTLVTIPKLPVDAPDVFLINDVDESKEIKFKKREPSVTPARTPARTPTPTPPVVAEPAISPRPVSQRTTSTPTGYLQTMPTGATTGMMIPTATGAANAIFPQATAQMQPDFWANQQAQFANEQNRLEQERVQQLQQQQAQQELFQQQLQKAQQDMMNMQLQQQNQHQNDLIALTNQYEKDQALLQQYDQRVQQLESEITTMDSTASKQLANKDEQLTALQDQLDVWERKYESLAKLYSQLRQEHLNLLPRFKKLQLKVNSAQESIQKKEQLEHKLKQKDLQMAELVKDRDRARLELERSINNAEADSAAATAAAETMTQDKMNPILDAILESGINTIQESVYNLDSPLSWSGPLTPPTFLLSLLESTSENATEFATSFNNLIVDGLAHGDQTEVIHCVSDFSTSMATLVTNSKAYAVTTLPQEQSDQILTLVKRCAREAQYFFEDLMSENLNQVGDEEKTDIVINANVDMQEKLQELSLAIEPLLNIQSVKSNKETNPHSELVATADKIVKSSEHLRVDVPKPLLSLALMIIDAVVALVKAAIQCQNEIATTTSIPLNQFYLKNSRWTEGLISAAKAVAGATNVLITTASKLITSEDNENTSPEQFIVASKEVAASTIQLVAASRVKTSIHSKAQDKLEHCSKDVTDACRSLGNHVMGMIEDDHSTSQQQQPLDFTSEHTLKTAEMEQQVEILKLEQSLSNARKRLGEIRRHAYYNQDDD

[2] = biological target: T2, Pan1 (S. cerevisiae, UniProt P32521 1-1480); assay: as above; conditions: partners not purified
T2 construct: Pan1, S. cerevisiae; also called Pan1-1myeGFP; Pan1-3mCherry; source: chromosomally tagged at the endogenous locus, in the cytoplasm of living S. cerevisiae cells
T2 sequence (looked up): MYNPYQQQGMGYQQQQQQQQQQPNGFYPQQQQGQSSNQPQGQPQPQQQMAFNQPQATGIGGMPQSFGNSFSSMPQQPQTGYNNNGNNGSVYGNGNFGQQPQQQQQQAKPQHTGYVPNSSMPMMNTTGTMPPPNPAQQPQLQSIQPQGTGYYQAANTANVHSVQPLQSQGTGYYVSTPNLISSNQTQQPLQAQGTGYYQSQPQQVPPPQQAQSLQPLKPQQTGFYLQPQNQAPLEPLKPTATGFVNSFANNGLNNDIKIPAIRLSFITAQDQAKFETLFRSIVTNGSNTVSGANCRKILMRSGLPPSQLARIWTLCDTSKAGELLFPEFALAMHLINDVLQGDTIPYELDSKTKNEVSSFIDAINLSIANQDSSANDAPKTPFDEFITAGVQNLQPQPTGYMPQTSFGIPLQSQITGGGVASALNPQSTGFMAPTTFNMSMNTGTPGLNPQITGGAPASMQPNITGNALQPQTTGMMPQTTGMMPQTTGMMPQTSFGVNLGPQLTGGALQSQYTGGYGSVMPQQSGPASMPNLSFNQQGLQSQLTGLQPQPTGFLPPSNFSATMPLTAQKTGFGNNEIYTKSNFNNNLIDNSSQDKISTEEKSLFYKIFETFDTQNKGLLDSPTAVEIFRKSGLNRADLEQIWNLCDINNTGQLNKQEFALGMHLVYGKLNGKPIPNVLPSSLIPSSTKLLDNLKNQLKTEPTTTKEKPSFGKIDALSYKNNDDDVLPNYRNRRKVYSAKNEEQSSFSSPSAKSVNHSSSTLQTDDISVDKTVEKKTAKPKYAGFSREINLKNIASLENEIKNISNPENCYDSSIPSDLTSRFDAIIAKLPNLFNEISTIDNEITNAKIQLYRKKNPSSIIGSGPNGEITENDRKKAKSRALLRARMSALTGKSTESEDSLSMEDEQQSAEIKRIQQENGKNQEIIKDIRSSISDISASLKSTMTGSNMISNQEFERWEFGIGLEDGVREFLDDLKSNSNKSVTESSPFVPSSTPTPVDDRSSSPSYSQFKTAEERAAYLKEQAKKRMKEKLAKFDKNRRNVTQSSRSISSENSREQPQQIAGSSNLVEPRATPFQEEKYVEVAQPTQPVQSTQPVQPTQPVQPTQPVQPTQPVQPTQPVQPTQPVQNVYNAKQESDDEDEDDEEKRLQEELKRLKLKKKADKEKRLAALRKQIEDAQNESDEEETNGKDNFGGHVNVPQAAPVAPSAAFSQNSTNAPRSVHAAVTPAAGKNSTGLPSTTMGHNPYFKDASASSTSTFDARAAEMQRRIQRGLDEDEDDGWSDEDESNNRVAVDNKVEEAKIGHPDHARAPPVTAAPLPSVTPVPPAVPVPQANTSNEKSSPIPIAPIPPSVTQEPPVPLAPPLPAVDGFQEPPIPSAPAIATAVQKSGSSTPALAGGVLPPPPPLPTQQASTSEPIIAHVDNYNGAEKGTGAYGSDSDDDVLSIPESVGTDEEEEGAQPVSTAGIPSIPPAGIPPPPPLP

Kd [1]: 622 nM
Kd [2]: 27 nM
B1: End3 (natural protein, S. cerevisiae, UniProt P39013 1-349, looked up)
chain: MPKLEQFEIKKYWQIFSGLKPIENKVNHDQVLPILYNSKLDSSVLNKIWFLADIDDDDNLDFEEFVICMRLIFDMVNKNISSVPDELPDWLIPGSKVNLIKERKKRKQIENADLPPKKEIKVDWYMSPDDLNQYEKIYNSCAKLTDGTITFNELSTKLSTKFFNISKTDLNKVWSLINPQNLPSIDRDPTFYFIHCLRQRNDLGAEIPASLPNSLAEVCNKKQLSYDLRSSQPPTKRKEEANEVDNLRDNGQNSSSDSSGSNVLSNEDSIKQKYASLTDDQVANMREQLEGLLNYKKSEKTQGGSKLSKRINIRSITDDLDNIEQQVEVLENYLNNKRHELQALQAEIN
notes: End3, S. cerevisiae; also called End3-3myeGFP; End3-3mCherry; source: chromosomally tagged at the endogenous locus, in the cytoplasm of living S. cerevisiae cells
